# Measurements reported in patent US20190276521A1 (Kyowa Kirin, published 2019).
# T1: human haptoglobin (human Hp) (human, UniProt P00738 19-160; P00738 162-406)
# T1 sequence 1: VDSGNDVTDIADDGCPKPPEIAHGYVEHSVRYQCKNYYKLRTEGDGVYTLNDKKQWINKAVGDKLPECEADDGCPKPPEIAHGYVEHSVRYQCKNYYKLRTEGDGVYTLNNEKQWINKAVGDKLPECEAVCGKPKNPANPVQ
# T1 sequence 2: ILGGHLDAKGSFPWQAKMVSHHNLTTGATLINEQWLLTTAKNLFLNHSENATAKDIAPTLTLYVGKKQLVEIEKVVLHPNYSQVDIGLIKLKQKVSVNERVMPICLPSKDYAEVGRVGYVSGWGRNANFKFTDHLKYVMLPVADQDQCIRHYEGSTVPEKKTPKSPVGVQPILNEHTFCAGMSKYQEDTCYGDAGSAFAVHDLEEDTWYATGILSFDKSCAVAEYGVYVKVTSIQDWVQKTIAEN
# T2: Chimera F (human with bovine residues, UniProt P00738 19-406)
# T2 construct: Expi293F; also called human Hp/bovine Hp chimeric protein
# T2 chain: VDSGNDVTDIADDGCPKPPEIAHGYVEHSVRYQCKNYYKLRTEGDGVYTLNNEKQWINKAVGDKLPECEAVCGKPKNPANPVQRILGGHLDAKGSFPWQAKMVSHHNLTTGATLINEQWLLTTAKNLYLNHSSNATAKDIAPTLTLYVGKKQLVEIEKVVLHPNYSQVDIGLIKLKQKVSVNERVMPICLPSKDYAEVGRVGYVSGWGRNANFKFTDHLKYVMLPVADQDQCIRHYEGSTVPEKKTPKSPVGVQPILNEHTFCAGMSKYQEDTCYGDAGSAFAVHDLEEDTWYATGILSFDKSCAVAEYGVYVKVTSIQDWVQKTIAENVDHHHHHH
# T3: Chimera A (human with bovine residues, UniProt P00738 19-406)
# T3 construct: α and β linked by a disulfide bond; Expi293F; also called human Hp/bovine Hp chimeric protein
# T3 chain: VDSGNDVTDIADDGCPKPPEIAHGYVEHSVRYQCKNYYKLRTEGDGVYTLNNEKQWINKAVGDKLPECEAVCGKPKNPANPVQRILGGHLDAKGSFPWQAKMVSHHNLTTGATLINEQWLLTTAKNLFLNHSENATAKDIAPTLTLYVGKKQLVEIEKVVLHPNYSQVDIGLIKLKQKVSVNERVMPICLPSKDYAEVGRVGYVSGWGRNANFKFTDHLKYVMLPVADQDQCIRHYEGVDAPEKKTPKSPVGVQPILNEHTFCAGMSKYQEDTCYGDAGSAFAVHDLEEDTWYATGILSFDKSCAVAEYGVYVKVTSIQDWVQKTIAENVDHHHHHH
# Columns and labels:
# [1] = target: full-length CD16a (V) expressed on CHO/DG44 cells (human) (UniProt P08637); test: flow cytometry competition on CD16a-expressing CHO/DG44 cells; competitor: anti-DNP antibody complexed with DNP-BSA-biotin
# [2] = target: histidine tag-conjugated soluble CD16a (V) (human) (UniProt P08637); test: ELISA, soluble CD16a-His captured by anti-Tetra-His antibody, anti-human IgG-HRP detection
# [3] = target: T1, human haptoglobin (human Hp); test: SEC-MALS of antibody 0.5 mg/mL mixed with human Hp 1.3 mg/mL, 16 hours at 37° C.
# Description: In order to check whether the anti-Hp antibodies have bound to the human Hp and formed a immune complex, analysis was performed by gel filtration chromatography (Size Exclusion Chromatography, SEC) (column; BioSep SEC-s4000, 7.8×300 mm, Phenomenex Inc.) using HPLC (Prominence, Shimadzu Corporation).
# The column was equilibrated using a mobile phase [50 mmol/L phosphate buffer (pH 7.0, 500 mmol/L NaCl)], the anti-Hp antibodies and the human Hp (Japan Blood Products Organization) were diluted with PBS and mixed together such that the concentrations of the anti-Hp antibodies and the human Hp became 0.5 mg/mL and 1.3 mg/mL, respectively, and the mixed solution was left to stand for 16 hours at 37° C.
# The components contained in […] of the mixed solution were separated at a flow rate of 0.5 mL/min. Then, for each peak detected at a wavelength of 280 nm, a molecular weight was calculated using a maximum value of scattering intensity detected by a multi angle light scattering (MALS) detector (miniDAWN TREOS, Wyatt Technology Corporation).
# [4] = target: T1, human haptoglobin (human Hp); test: competitive ELISA on plate-coated human Hp (-: absorbance less than 0.5); competitor: anti-Hp polyclonal antibody
# Description: The immobilized solution was removed, 1% BSA-PBS was then dispensed into the plate at 100 μL/well, and the plate was left to stand for 1 hour at room temperature for blocking and washed 3 times with PBST.
# The plate was washed 3 times of PBST, and ABTS was dispensed into the plate at 50 μL/well for developing color. At a point in time when color was appropriately developed, 1% SDS was dispensed into the plate at 50 μL/well, and by using a plate reader, the absorbance at a sample wavelength of 415 nm and a reference wavelength of 490 nm was measured.
# Chimera F = target: T2, Chimera F; test: ELISA on plate-coated antigen (-: absorbance ratio less than 0.5)
# Description: (§1) The chimeras A to F, the recombinant human Hp and bovine Hp were immobilized in a 96-well plate based on the method described in Example 5, and blocking was performed.
# (§2) The plate was washed 3 times with PBST, Goat anti Human IgG (H&L)-HRP or Rabbit anti-Mouse IgG-HRP diluted with 1% BSA-PBS was dispensed into the plate at 50 μL/well, and the plate was left to stand for 1 hour at room temperature. The color development and the absorbance measurement to be carried out thereafter were performed based on the method described in Example 5. By regarding the absorbance of the well, in which each of the anti-Hp antibodies was reacted with the recombinant human Hp, as 1, a ratio of the absorbance, in which the sample was reacted, to the aforementioned absorbance was calculated.
# Chimera A = target: T3, Chimera A; test: as above
# Description: as §1, §2
# histidine tag-conjugated soluble CD16a (V) (human), sequence (P08637 other isoform, or with tags, fused parts or gaps limits assumed): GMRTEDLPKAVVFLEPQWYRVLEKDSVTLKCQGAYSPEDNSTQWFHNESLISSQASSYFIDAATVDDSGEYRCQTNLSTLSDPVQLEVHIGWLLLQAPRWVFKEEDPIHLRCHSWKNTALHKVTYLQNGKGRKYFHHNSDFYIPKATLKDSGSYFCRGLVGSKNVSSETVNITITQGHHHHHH
# full-length CD16a (V) expressed on CHO/DG44 cells (human), sequence (P08637 17-254 F176V limits assumed): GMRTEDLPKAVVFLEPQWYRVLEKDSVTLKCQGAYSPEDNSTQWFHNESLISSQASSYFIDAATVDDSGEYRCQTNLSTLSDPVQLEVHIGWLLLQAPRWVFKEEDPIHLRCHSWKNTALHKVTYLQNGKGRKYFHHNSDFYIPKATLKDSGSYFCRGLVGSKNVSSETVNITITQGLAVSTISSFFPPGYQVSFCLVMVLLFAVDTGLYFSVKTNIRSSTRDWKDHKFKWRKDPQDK
Molecule,IC50 [1] [µg/mL],EC50 [2] [µg/mL],Peak molecular weight of immune complex [3],"absorbance (415 nm, reference 490 nm) [4]",absorbance ratio to recombinant human Hp (Chimera F),absorbance ratio to recombinant human Hp (Chimera A)
Intravenous immunoglobulin (IVIG) (antibody),540,1.06,,,,
"anti-Hp antibody #4 (antibody, V domains shown, also called clone #4; #4 antibody) VH: EVHLLESGGGLVQPGGSLRLSCQASGFTFNSNAMSWVRRAPGKGLEWISSIGANTNYIYTADSVKGRFTISRDNSKNTLYLQMNSLRAEDTAAYYCAKNRDRYSYDAWSVWGQGTTVTVSS VL: DIQMTQSPSTLSASVGDRVTITCRASQSIDIWLAWYQQKPGKAPKLLIYEASSLESEVPSRFSGSGSGTEFTLTISSLQPDDFATYYCQAYNSNYPYAFGQGTNLEIK",,1.99,341000,,,
"anti-Hp antibody #6 (antibody, V domains shown, Recombinant human IgG1/kappa antibody; also called clone #6; #6 antibody) VH: EVQLLESGGGLVQPGGSLKLSCVASEFTFSNYAMSWVRQAPGKGLEWVSTFSSGGSRTFYADSVRGRFTISRDNSNNMLFLQIDSLRAEDTAVYYCAKAQFVGHWAQYNYWGQGALVTVSS VL: DIQMTQSPSSLSASVGDRVAITCRASQGIRNYLAWYQQKPGKVPKLLIYDAFILQSGVPSRFSGSGSGTDFTLTISSLQPEDVATYYCQKSDSPPLTFGGGTKVEIK",,0.805,,< 0.5,,
"anti-Hp antibody #27 (antibody, V domains shown, Recombinant human IgG1/kappa antibody; also called clone #27; #27 antibody) VH: EQQLVESGGGLVQPGRSLTLSCVASGFTFGDYAMGWVRQAPGKGLEWVSSISSDALYKGYVDSVKGRFTVSRDNAKNSLYLQMDNLRTEDTAFYYCTKDLRSGNFGQYGDWGQGTLVTVSS VL: AIQMTQSPSSLSASVGDRVTITCRASQGIGSDLTWYQQEPGKAPKLLIYAASTLQSGVPSRFSGGGSGTDFTLTISSLQPEDAATYYCLQSHGYPLTFGQGTKLEIK",238,0.763,523000,,< 0.5,
"anti-Hp antibody #105 (antibody, V domains shown, Recombinant human IgG1/kappa antibody) VH: QVHLQQWGAGLLKPSETLSLTCNVYGSSLSQYFWNWIRQPPGKGLEWMGRITSGGSTNYNPSLESRVTIIVDTFKNQFSLKLVSVTAADTAVYYCARGPFVEGAAPTVLGTGFSIWGQGTMVTVSS VL: EIVLTQSPGTLSLSPGERATLSCRASQSVNNNYLAWYQQKPGQAPRLLIYDASKRATGIPDRFSGSGSGTDFTLTISRLEPEDFAVYYCQQYGHSRPYTFGQGAKLEIK",,0.405,,< 0.5,,< 0.5
"anti-Hp antibody #96-6 (antibody, V domains shown, Recombinant human IgG1/kappa antibody; also called clone #96-6; Labeled #96-6) VH: EVQLLESGGGLVQPGGSLRLSCEASGSSVSSHFMTWVRQSPGKGLEWVSSISPNPAYTYYANSVKGRFTISRDNSKNMLYLQMNDLRAEDTARYYCARRSDFDTWGQGTMLTVSS VL: DIQMTQSPSAMSASVGDRVTITCRASRYIGKDLAWFQQKPGEVPKRLIYDASSLQSGVPSRFSGSGSGTEFTLTVSNLQPEDLGTYYCQHYYTFPLTFGPGTKVDIK",,0.473,,< 0.5,,
